Reference: the supplement of paper PMC7877785
± gives the uncertainty stated by the source.

Assay: self-splicing fitness, log relative to wild type (ln ratio); higher = more splicing; Tetrahymena group I intron in knt gene, E. coli kanamycin selection, DiMSum; sequences stand for … in CUCUCU…GGAGGGAAAAGUUAUCAGGCAUGCACCUGGUAGCUAGUCUUUAAACCAAUAGAUUGCAUCGGUUUAAAAGGCAAGACCGUCAAAUUGCGGGAAAGGGGUCAACAGCCGUUCAGUACCAAGUCUCAGGGGAAACUUUGAGAUGGCCUUGCAAAGGGUAUGGUAAUAAGCUGACGGACAUGGUCCUAACCACGCAGCCAAGUCCUAAGUCAACAGAUCUUCUGUUGAUAUGGAUGCAGUUCACAGACUAAAUGUCGGUCGGGGAAGAUGUAUUCUUCUCAUAAGAUAUAGUCGGACCUCUCCUUAAUGGGAGCUAGCGGAUGAAGUGAUGCAACACUGGAGCCGCUGGGAACUAAUUUGUAUGCGAAAGUAUAUUGAUUAGUUUUGGAGUACUCGUGGUCG
Procedure, shortened: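 Fitness was computed with DiMSum as the error-weighted combination of replicate fold changes, kanamycin versus none, each normalised to wild type. The library randomised all eight intron nucleotides of the P1ex region, with the intron placed in the knt kanamycin-resistance gene on pET-22b(+) in E. coli BL21(DE3). Six replicate transformations were grown overnight at 37°C or 30°C on LB agar with or without 25 μg/mL kanamycin, plus 100 μg/mL carbenicillin, 50 μM IPTG and 0.2% rhamnose. Pooled colonies were amplicon-sequenced on an Illumina HiSeq 2500.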

Sequence	self-splicing fitness (ln) (30 °C)	self-splicing fitness (ln) (37 °C)
CACAAGCAAUAUUACGUGAA	-4.27 ± 0.25	-2.39 ± 0.21
CACAAGCAAUAUUACGUUAC	-4.46 ± 0.34	-3.12 ± 0.36
CACCAGCAAUAUUACGAAUA	-3.93 ± 0.21	-2.62 ± 0.16
CACCAGCAAUAUUACGACCC	-3.82 ± 0.25	-2.98 ± 0.28
CACCAGCAAUAUUACGACGC	-3.22 ± 0.19	-1.39 ± 0.16
CACCAGCAAUAUUACGACGU	-2.58 ± 0.096	-1.11 ± 0.099
CACCAGCAAUAUUACGAGGG	-2.81 ± 0.088	-1.79 ± 0.093
CACCAGCAAUAUUACGAGGU	-3.22 ± 0.12	-2.53 ± 0.16
CACCAGCAAUAUUACGAUAA	-4.88 ± 0.31	-2.14 ± 0.19
CACCAGCAAUAUUACGCAAA	-4.2 ± 0.27	-2.99 ± 0.2
CACCAGCAAUAUUACGCCAG	-0.583 ± 0.075	0.205 ± 0.097
CACCAGCAAUAUUACGCCCG	-0.197 ± 0.14	0.343 ± 0.19
CACCAGCAAUAUUACGCUUG	-1.06 ± 0.052	-0.22 ± 0.069
CACCAGCAAUAUUACGGAGU	-3.74 ± 0.18	-2.54 ± 0.15
CACCAGCAAUAUUACGGCCC	-1.8 ± 0.17	-0.352 ± 0.19
CACCAGCAAUAUUACGGGGG	-3.36 ± 0.11	-2.64 ± 0.18
CACCAGCAAUAUUACGGUAG	-1.97 ± 0.063	-1.69 ± 0.09
CACCAGCAAUAUUACGGUCA	-0.569 ± 0.05	0.174 ± 0.062
CACCAGCAAUAUUACGUAAG	0.114 ± 0.041	0.336 ± 0.061
CACCAGCAAUAUUACGUACC	-4.01 ± 0.43	-1.84 ± 0.33
CACCAGCAAUAUUACGUAGC	-4.18 ± 0.17	-2.41 ± 0.14
CACCAGCAAUAUUACGUCGA	-1.89 ± 0.086	-0.942 ± 0.088
CACCAGCAAUAUUACGUGCG	-0.627 ± 0.04	-0.299 ± 0.056
CACCAGCAAUAUUACGUUAG	-0.512 ± 0.048	0.279 ± 0.064
CACCAGCAAUAUUACGUUAU	-3.86 ± 0.12	-3.32 ± 0.15

Sequence	self-splicing fitness (ln) (30 °C)	self-splicing fitness (ln) (37 °C)
CACCAGCAAUAUUACGUUUG	-0.595 ± 0.043	-0.00269 ± 0.064
CACGAGCAAUAUUACGAAGU	-1.68 ± 0.13	-2.23 ± 0.19
CACGAGCAAUAUUACGAAUU	-4.81 ± 0.41	-2.25 ± 0.21
CACGAGCAAUAUUACGACGG	-1.6 ± 0.13	-0.392 ± 0.14
CACGAGCAAUAUUACGACGU	-3.25 ± 0.17	-3.34 ± 0.23
CACGAGCAAUAUUACGACUA	-2.71 ± 0.21	-1.85 ± 0.15
CACGAGCAAUAUUACGAGAA		-1.61 ± 0.44
CACGAGCAAUAUUACGAGAC	-2.99 ± 0.2	-1.89 ± 0.3
CACGAGCAAUAUUACGAUAG	-3.14 ± 0.15	-1.6 ± 0.18
CACGAGCAAUAUUACGCACA	-2.74 ± 0.19	-1.17 ± 0.15
CACGAGCAAUAUUACGCAUC	-1.74 ± 0.34	
CACGAGCAAUAUUACGCCCG	-1.88 ± 0.29	-1.9 ± 0.28
CACGAGCAAUAUUACGCGAC		-2.76 ± 0.27
CACGAGCAAUAUUACGCGCC		-0.83 ± 0.48
CACGAGCAAUAUUACGCGCG	-2.9 ± 0.24	-1.25 ± 0.18
CACGAGCAAUAUUACGCGGG	-4.05 ± 0.26	-2.88 ± 0.26
CACGAGCAAUAUUACGCGUG	-2.79 ± 0.19	-2.97 ± 0.38
CACGAGCAAUAUUACGGGAU	-3.52 ± 0.28	-2.33 ± 0.21
CACGAGCAAUAUUACGGGCA	-2.84 ± 0.31	
CACGAGCAAUAUUACGGGUA	-3.26 ± 0.18	-2.02 ± 0.16
CACGAGCAAUAUUACGUCGU	-2.05 ± 0.14	-3.43 ± 0.24
CACGAGCAAUAUUACGUCUG	-2.32 ± 0.095	-0.929 ± 0.092
CACGAGCAAUAUUACGUGGG	-4.45 ± 0.29	-2.71 ± 0.18
CACUAGCAAUAUUACGAAAA	-3.29 ± 0.33	-1.87 ± 0.26
CACUAGCAAUAUUACGAAGA	-3.05 ± 0.24	-2.27 ± 0.2

Sequence	self-splicing fitness (ln) (30 °C)	self-splicing fitness (ln) (37 °C)
CACUAGCAAUAUUACGAGAA	-2.74 ± 0.43	-1.67 ± 0.28
CACUAGCAAUAUUACGAGAG	-3.21 ± 0.2	-1.73 ± 0.14
CACUAGCAAUAUUACGCAAG	-2.39 ± 0.098	-1.43 ± 0.12
CACUAGCAAUAUUACGCGAA	-2.72 ± 0.19	-2.74 ± 0.2
CACUAGCAAUAUUACGCGCG	-1.1 ± 0.11	-0.054 ± 0.14
CACUAGCAAUAUUACGCGUU	-2.86 ± 0.13	-0.877 ± 0.11
CACUAGCAAUAUUACGCUAA	-3.33 ± 0.3	-1.75 ± 0.19
CACUAGCAAUAUUACGCUUG	-2.03 ± 0.16	-0.991 ± 0.13
CACUAGCAAUAUUACGGCAU	-4.16 ± 0.19	-1.55 ± 0.14
CACUAGCAAUAUUACGGCGA	-2.43 ± 0.16	-1.61 ± 0.2
CACUAGCAAUAUUACGGCGG	-0.21 ± 0.079	-0.0455 ± 0.092
CACUAGCAAUAUUACGGCUC	-2.9 ± 0.17	-1.79 ± 0.3
CACUAGCAAUAUUACGGCUU	-3.4 ± 0.24	-1.91 ± 0.21
CACUAGCAAUAUUACGGUCG	-0.198 ± 0.072	0.007 ± 0.085
CACUAGCAAUAUUACGGUUC	-2.4 ± 0.12	-1.45 ± 0.16
CACUAGCAAUAUUACGGUUU	-1.56 ± 0.077	-0.979 ± 0.093
CACUAGCAAUAUUACGUACA	-2.35 ± 0.21	-1.29 ± 0.4
CACUAGCAAUAUUACGUAGA	-3.01 ± 0.089	-1.81 ± 0.096
CACUAGCAAUAUUACGUCUG	-0.516 ± 0.058	0.214 ± 0.074
CACUAGCAAUAUUACGUGUG	-3.71 ± 0.14	-2.82 ± 0.16
CACUAGCAAUAUUACGUUGC	-2.61 ± 0.22	-1.58 ± 0.21
CACUAGCAAUAUUACGUUUG	-2.29 ± 0.079	-1.42 ± 0.11
CAGAAGCAAUAUUACGAAUU	-3.5 ± 0.2	-2.05 ± 0.27
CAGAAGCAAUAUUACGACGG	-0.126 ± 0.079	0.104 ± 0.1
CAGAAGCAAUAUUACGAGUG	-1.63 ± 0.067	-0.988 ± 0.091

Sequence	self-splicing fitness (ln) (30 °C)	self-splicing fitness (ln) (37 °C)
CAGAAGCAAUAUUACGAGUU	-3.32 ± 0.34	-2.47 ± 0.3
CAGAAGCAAUAUUACGCAUA	-3.68 ± 0.24	-2.02 ± 0.18
CAGAAGCAAUAUUACGCCUG	-2.25 ± 0.23	-3.94 ± 0.39
CAGAAGCAAUAUUACGCGGG	-2.43 ± 0.2	-2.74 ± 0.27
CAGAAGCAAUAUUACGCGGU	-3.61 ± 0.12	-2.34 ± 0.14
CAGAAGCAAUAUUACGCUGU	-4.53 ± 0.37	-2.83 ± 0.21
CAGAAGCAAUAUUACGCUUA	-3.85 ± 0.32	-1.9 ± 0.18
CAGAAGCAAUAUUACGGCGC	-3.28 ± 0.32	-1.6 ± 0.31
CAGAAGCAAUAUUACGUAUG	-4.42 ± 0.16	-2.56 ± 0.13
CAGAAGCAAUAUUACGUGGU	-3.58 ± 0.17	-1.86 ± 0.16
CAGAAGCAAUAUUACGUUAA	-3.62 ± 0.27	-3.02 ± 0.43
CAGAAGCAAUAUUACGUUGC	-4.27 ± 0.26	-2.74 ± 0.25
CAGCAGCAAUAUUACGAAAA	-2.36 ± 0.2	-2.26 ± 0.28
CAGCAGCAAUAUUACGAAAG	-0.597 ± 0.09	-0.18 ± 0.12
CAGCAGCAAUAUUACGAAAU	-3.94 ± 0.25	-2.97 ± 0.27
CAGCAGCAAUAUUACGAACA	-2.72 ± 0.38	-2.17 ± 0.32
CAGCAGCAAUAUUACGACGA	-1.68 ± 0.13	-0.501 ± 0.096
CAGCAGCAAUAUUACGACGC		-1.5 ± 0.45
CAGCAGCAAUAUUACGAGAG	-2.38 ± 0.083	-1.81 ± 0.089
CAGCAGCAAUAUUACGAGAU	-2.65 ± 0.24	-1.71 ± 0.2
CAGCAGCAAUAUUACGAUAG	-0.297 ± 0.063	-0.0435 ± 0.077
CAGCAGCAAUAUUACGAUAU	-3.29 ± 0.24	-2.3 ± 0.19
